According to patent publication US20130287781A1 (GlaxoSmithKline, published 2013):
Like-named read-outs stand apart in the source and are kept apart here.

Tests used:
[1] = biological target: T1, native human Nogo-A of IMR32 neuroblastoma cells (intracellular) (human, UniProt Q9NQC3 1-1192); test: flow cytometry on permeabilised, fixed IMR32 cells (intracellular Nogo-A), PE anti-human IgG, MFI
T1 construct: whole, on cells; Detected inside permeabilised, fixed cells (ER-resident), not on the cell surface; also called intracellular Nogo-A; native Nogo-A
T1 sequence (looked up): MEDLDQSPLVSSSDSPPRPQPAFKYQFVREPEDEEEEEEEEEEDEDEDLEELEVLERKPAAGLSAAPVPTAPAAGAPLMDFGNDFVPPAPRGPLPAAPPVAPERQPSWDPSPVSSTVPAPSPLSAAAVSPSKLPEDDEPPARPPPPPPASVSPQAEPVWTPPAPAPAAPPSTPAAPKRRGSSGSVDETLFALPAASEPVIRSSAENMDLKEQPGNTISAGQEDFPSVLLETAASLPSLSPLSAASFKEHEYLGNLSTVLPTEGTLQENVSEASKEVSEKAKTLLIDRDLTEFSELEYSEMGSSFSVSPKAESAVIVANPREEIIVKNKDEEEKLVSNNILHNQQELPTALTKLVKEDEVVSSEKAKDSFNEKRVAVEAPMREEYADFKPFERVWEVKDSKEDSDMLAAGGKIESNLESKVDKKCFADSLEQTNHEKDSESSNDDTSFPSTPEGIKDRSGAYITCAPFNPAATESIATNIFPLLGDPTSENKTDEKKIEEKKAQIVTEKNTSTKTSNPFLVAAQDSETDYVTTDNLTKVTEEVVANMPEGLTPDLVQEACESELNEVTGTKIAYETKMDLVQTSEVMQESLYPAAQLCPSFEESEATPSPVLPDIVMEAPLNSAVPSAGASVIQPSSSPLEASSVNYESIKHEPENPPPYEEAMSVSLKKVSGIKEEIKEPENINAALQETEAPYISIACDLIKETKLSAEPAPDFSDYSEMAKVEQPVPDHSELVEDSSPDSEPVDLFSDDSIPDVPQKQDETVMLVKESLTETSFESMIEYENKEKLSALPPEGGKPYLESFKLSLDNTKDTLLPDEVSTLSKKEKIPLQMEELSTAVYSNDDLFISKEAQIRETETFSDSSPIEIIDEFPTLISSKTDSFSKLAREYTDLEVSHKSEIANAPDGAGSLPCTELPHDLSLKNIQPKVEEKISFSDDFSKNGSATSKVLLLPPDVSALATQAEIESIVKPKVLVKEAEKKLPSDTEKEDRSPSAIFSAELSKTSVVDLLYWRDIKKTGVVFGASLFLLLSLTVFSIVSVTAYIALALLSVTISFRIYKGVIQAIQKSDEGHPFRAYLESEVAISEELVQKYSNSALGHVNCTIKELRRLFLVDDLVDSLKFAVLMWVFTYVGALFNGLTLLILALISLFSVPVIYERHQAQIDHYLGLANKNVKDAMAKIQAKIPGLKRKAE
Description: In the second assay, the ability of the humanised antibodies to bind native Nogo-A was assessed using a human neuroblastoma cell line—IMR32. This cell line is characterised by high intracellular/low cell surface levels of Nogo-A protein. In an attempt to increase the binding signal, the assay was set-up to detect intracellular Nogo-A (ER-resident). IMR32 cells were permeabilised and fixed prior to staining with the anti-Nogo-A humanised antibodies. Binding of the antibodies to Nogo-A was detected using an anti-human IgG-PE labelled secondary (Sigma, #P8047).

GST-human NOGO-A56 [2] = biological target: T2, GST-human NOGO-A56 (human); test: SPR (Biacore), GST-human NOGO-A56 amine-coupled to CM5, antibody flowed over, 25 C
T2 construct: Expressed in E. coli BL21 from pGEX-6P1 and purified on glutathione-sepharose; the GST tag is part of the protein in the assays; also called GST-Nogo-A 5+6; GST Nogo-A 5 + 6
T2 sequence (chain, as listed by the source limits assumed): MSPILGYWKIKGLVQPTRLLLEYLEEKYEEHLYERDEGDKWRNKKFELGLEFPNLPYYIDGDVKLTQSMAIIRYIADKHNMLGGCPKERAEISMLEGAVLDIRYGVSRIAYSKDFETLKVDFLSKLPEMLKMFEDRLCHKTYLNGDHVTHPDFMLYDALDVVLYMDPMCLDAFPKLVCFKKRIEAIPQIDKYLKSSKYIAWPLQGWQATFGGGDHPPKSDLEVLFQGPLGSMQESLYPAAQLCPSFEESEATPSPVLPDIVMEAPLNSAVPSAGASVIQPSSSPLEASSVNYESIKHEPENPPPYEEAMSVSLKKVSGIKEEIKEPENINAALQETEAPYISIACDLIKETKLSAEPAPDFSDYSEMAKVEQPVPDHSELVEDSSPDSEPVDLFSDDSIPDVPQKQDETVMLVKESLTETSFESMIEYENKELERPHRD
Description: (§1) GST-human NOGO-A56 was immobilised to a CM5 chip by primary amine coupling using the Biacore Wizard program designed for targeted immobilisation levels. The CM5 sensor surface was activated by passing a solution of 50 mM N-hydroxy-succinimide (NHS) and 200 mM N-ethyl-N′-dimethylaminopropyl carbonide (EDC). Then GST-human NOGO-A56 in sodium acetate buffer, pH5.0 or pH 4.5, was passed over the chip and immobilised. After immobilisation was complete any still activated esters were blocked by an injection of 1M ethanolamine hydrochloride, pH8.5.
(§2) The anti-NOGO mAbs were diluted down in HBS-EP (10 mM HEPES, pH 7.4, 150 mM NaCl, 3 mM EDTA, and 0.005% P-20 surfactant) for the BIAcore 3000 or HBS-EP+ (10 mM HEPES, pH 7.4, 150 mM NaCl, 3 mM EDTA, and 0.05% P-20 surfactant) in the case of the T100 and binding studies were carried out at range of defined antibody concentrations. All runs were referenced against a blanked sensor surface (one that had been activated and blocked as described earlier but had no addition of ligand). Analysis of binding was carried out using the BIAevaluation kinetic analysis software version 4.1 for the BIAcore 3000 and T100 kinetic analysis software version 1.0. […] Unless otherwise stated, the BIAcore experiments were performed at 25° C.

[3] = biological target: T3, Marmoset NOGO (A56) plus GST tag (marmoset); test: direct ELISA on GST-NOGO-A56 from marmoset, Abs490
T3 construct: also called GST-NOGO-A56 from marmoset
T3 sequence (chain, as listed by the source limits assumed): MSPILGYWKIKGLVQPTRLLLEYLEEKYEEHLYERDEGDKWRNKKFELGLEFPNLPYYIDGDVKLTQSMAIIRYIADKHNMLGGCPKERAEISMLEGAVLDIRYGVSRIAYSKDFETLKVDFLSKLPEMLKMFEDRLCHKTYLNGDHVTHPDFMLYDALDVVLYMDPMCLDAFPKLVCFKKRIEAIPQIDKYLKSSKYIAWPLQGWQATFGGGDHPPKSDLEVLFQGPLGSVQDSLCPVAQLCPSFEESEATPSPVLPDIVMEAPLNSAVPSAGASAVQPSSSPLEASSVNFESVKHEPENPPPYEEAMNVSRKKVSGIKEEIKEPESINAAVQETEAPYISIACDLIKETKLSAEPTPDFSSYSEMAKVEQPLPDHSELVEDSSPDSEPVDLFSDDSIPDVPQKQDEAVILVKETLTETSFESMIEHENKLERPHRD

[4] = biological target: T4, Cynomolgus monkey NOGO (A56) plus GST tag (cynomolgus monkey); test: SPR (Biacore T100), reverse format: antibody captured by Protein A, GST-NOGO-A56 flowed over; mean
T4 construct: also called cynomolgus Nogo-A; GST-NOGO-A56 from cynomolgus
T4 sequence (chain, as listed by the source limits assumed): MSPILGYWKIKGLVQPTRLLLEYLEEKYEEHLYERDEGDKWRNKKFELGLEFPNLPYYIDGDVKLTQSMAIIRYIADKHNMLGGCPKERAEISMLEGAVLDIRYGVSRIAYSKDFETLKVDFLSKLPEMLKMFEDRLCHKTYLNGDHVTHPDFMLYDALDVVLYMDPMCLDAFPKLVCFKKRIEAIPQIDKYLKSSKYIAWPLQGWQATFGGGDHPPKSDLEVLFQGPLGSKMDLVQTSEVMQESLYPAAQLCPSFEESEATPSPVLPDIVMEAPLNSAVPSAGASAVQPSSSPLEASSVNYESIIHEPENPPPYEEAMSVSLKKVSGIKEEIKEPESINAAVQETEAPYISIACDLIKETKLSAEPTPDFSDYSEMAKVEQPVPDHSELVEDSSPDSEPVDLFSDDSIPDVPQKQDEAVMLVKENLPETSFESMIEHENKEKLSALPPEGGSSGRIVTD
Excerpt: (§3) Protein A was immobilised on the surface at about 4000RUs and anti-Nogo-A antibodies were captured at approximately 300-400RUs. […] All the runs were done in duplicates. The values show the mean and standard deviation (in brackets) of 1-3 independent runs with each run done in duplicate and each data set analysed independently prior to calculation of the mean and standard deviation.

[5] = biological target: T5, Squirrel monkey NOGO (A56) plus GST tag (squirrel monkey); test: as above
T5 construct: also called GST-NOGO-A56 from squirrel monkey
T5 sequence (chain, as listed by the source limits assumed): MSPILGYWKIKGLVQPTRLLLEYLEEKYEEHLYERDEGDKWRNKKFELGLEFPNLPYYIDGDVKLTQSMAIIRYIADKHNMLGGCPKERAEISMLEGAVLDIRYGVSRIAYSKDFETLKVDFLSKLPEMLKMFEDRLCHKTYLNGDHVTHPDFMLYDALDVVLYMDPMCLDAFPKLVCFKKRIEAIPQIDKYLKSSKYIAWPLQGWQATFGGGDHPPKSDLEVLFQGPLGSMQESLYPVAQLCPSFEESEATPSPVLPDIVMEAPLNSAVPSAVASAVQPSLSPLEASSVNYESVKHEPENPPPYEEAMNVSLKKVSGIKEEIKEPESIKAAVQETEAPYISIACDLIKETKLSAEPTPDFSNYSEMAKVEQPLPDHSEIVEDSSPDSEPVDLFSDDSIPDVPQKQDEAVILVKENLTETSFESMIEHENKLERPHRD
Excerpt: as §3

[6] = biological target: T6, Rat NOGO (A56) plus GST tag (rat); test: as above
T6 construct: also called GST-NOGO-A56 from rat
T6 sequence (chain, as listed by the source limits assumed): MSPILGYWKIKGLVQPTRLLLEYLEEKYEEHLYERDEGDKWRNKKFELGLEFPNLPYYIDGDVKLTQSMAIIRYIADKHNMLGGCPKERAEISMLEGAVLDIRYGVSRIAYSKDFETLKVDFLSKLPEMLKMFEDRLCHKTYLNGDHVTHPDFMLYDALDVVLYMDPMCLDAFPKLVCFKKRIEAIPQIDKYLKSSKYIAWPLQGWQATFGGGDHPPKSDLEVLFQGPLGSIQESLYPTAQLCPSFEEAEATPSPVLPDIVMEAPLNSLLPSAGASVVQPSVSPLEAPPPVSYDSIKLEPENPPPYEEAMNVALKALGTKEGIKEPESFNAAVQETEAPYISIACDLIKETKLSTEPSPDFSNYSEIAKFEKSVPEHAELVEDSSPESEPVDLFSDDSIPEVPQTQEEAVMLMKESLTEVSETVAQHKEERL
Excerpt: as §3

[7] = biological target: T3, Marmoset NOGO (A56) plus GST tag; test: as above
Excerpt: as §3

GST-human NOGO-A56 [8] = biological target: T2, GST-human NOGO-A56; test: as above
Excerpt: as §3

GST-human NOGO-A56 [9] = biological target: T2, GST-human NOGO-A56; test: direct ELISA, GST-human NOGO-A56 coated at 1.0 mcg/ml, purified antibody, OD490
Description: (§4) Wells were rinsed once with TBS+0.05% Tween (TBST) then incubated with 2% BSA in TBST to block non-specific binding sites at room temperature for 1 hour. Antibodies were diluted in TBST+2% BSA to 10 μg/ml and ½ dilutions made from this. Antibodies were added to wells in duplicate and incubated at room temperature for 1 hour. […] The wells were washed three times with TBST and then incubated with 100 μl OPD peroxidase substrate (Sigma) per well for 10 minutes. The colour reaction was stopped by the addition of 25 μl concentrated H₂SO₄. Optical density at 490 nm was measured using a plate reader. Background values read from wells with no antibody were subtracted.

GST-human NOGO-A56 [10] = biological target: T2, GST-human NOGO-A56; test: SPR (Biacore T100), reverse format: antibody captured by Protein A, GST Nogo-A 5+6 0.125-8 nM flowed over; mean (SD in brackets)
Excerpt: Protein A was immobilised to approximately 4000RUs by primary amine and used to capture 200-300RUs of the sample antibodies. […] The values show the mean and standard deviation (in brackets) of three independent runs in duplicate. Each data set was independently analysed prior to the calculation of the mean and standard deviation.

GST-human NOGO-A56 [11] = biological target: T2, GST-human NOGO-A56; test: direct ELISA, GST-human NOGO-A56 coated at 1.0 mcg/ml, purified antibody, OD490; remark: listed apart in the source
Description: as §4

GST-human NOGO-A56 [12] = biological target: T2, GST-human NOGO-A56; test: reverse format ELISA: antibody captured on anti-human IgG, GST-Nogo-A 5+6 detected with anti-GST-HRP; the x axis is the antibody concentration
GST-human NOGO-A56 [13] = biological target: T2, GST-human NOGO-A56; test: direct ELISA, GST-Nogo-A 5+6 coated at 1.0 mcg/ml, anti-human IgG-HRP, Abs490
Description: as §4

[14] = biological target: T4, Cynomolgus monkey NOGO (A56) plus GST …; test: direct ELISA on GST-NOGO-A56 from cynomolgus, Abs490
GST-human NOGO-A56 [15] = biological target: T2, GST-human NOGO-A56; test: SPR (Biacore), GST-human NOGO-A56 amine-coupled to CM5, antibody flowed over, 25 C; remark: listed apart in the source
Description: as §1, §2

B1: HcLc (chimera of 2A10: murine 2A10 VH and VL with human IgG constant regions) (antibody, V domains shown)
VH: QVQLQQPGTELVKPGASVKLSCKASGYTFTSYWMHWVKQRPGQGLEWIGNINPSNGGTNYNEKFKSKATLTVDKSSSTAYMQLSSLTSEDSAVYYCELGQGYWGQGTLVTVSS
VL: DIVITQDELSNPVTSGESVSISCRSSKSLLYKDGKTYLNWFLQRPGQSPQLLIYLMSTRASGVSDRFSGSGSGTDFTLEISRVKAEDVGVYYCQQLVEYPLTFGAGTKLELKR
notes: also called chimeric antibody; chimeric form of the parental antibody
For B1, the binding result [1] was “binds”, the Kd (GST-human NOGO-A56 [2]) was 0.74 nM and the koff (GST-human NOGO-A56 [2]) was 0.00233 s⁻¹. The kon (GST-human NOGO-A56 [2]) was 3.17e+06 M⁻¹ s⁻¹, the “EC50 (read off the curve)” value [3] was ~0.09 µg/mL and the Kd [4] was 4.66 nM. The Kd [5] was 7.45 nM, the Kd [6] was 2.01 nM and the Kd [7] was 4.51 nM. For the same binder, the Kd (GST-human NOGO-A56 [8]) was 0.54 nM, the “EC50 (read off the curve)” value (GST-human NOGO-A56 [9]) was ~0.09 µg/mL and the Kd (GST-human NOGO-A56 [10]) was 0.41 nM. The “EC50 (read off the curve)” value (GST-human NOGO-A56 [11]) was ~0.06 µg/mL, the “EC50 (read off the curve)” value (GST-human NOGO-A56 [12]) was ~0.1 µg/mL and the “EC50 (read off the curve)” value (GST-human NOGO-A56 [13]) was ~0.08 µg/mL. For the same binder, the “EC50 (read off the curve)” value [14] was ~0.1 µg/mL, the Kd (GST-human NOGO-A56 [15]) was 1.18 nM and the koff (GST-human NOGO-A56 [15]) was 0.00313 s⁻¹. The kon (GST-human NOGO-A56 [15]) was 2.66e+06 M⁻¹ s⁻¹.

B2: H28L16 (antibody, human IgG1, kappa)
heavy: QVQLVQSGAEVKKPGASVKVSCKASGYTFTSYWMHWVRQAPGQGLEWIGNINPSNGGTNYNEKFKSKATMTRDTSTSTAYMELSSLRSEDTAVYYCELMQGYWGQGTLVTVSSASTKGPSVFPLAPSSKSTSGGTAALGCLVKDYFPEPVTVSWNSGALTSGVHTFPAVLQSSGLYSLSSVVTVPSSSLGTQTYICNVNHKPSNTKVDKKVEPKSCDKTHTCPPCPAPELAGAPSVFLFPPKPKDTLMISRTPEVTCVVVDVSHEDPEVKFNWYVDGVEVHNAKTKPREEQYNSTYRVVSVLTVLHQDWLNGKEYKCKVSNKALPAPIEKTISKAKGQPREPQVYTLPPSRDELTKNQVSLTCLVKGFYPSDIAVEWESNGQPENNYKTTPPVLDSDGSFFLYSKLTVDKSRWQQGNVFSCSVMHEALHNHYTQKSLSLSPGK
light: DIVMTQSPLSNPVTLGQPVSISCRSSKSLLYKDGKTYLNWFLQRPGQSPQLLIYLMSTRASGVPDRFSGGGSGTDFTLKISRVEAEDVGVYYCQQLVEYPLTFGQGTKLEIKRTVAAPSVFIFPPSDEQLKSGTASVVCLLNNFYPREAKVQWKVDNALQSGNSQESVTEQDSKDSTYSLSSTLTLSKADYEKHKVYACEVTHQGLSSPVTKSFNRGEC
notes: IgG1 (L235A, G237A) / kappa; CAMPATH-1H signal (1-19) left out; also called H28FL L16FL; NOGO H28L16
B2 was tested, and the binding result [1] was “binds”, the Kd (GST-human NOGO-A56 [2]) was 0.28 nM and the koff (GST-human NOGO-A56 [2]) was 0.00195 s⁻¹. The kon (GST-human NOGO-A56 [2]) was 6.89e+06 M⁻¹ s⁻¹, the “EC50 (read off the curve)” value [3] was ~0.04 µg/mL and the Kd [4] was 3.41 nM. The Kd [5] was 6.86 nM, the Kd [6] was 1.76 nM and the Kd [7] was 4.89 nM. The Kd (GST-human NOGO-A56 [8]) was 0.4 nM, the “EC50 (read off the curve)” value (GST-human NOGO-A56 [9]) was ~0.08 µg/mL and the Kd (GST-human NOGO-A56 [10]) was 0.34 nM. The “EC50 (read off the curve)” value (GST-human NOGO-A56 [11]) was ~0.06 µg/mL, the “EC50 (read off the curve)” value (GST-human NOGO-A56 [12]) was ~0.06 µg/mL and the “EC50 (read off the curve)” value (GST-human NOGO-A56 [13]) was ~0.03 µg/mL. For the same binder, the “EC50 (read off the curve)” value [14] was ~0.05 µg/mL, the Kd (GST-human NOGO-A56 [15]) was 0.61 nM and the koff (GST-human NOGO-A56 [15]) was 0.00264 s⁻¹. The kon (GST-human NOGO-A56 [15]) was 4.33e+06 M⁻¹ s⁻¹.
